Our source for the Kd values is the Immune Epitope Database (IEDB).

Bounds are passed on as bounds.

The target of one assay is HLA-A*02:01. Briefly: IEDB peptide-MHC binding, purified MHC/direct/fluorescence; filed as Kd, often an IC50 or EC50 that approximates it; ≥ and ≤ were set here for values at or beyond the usual limits of such assays.
For another assay, the target named is HLA-A*02:11. The assay is described as above.
The target of another assay is HLA-A*02:12. Described as above.
The next assay addresses HLA-A*02:19. The description is as above.
The target of another assay is HLA-A*69:01. Described as above.
The next assay concerns the target HLA-C*03:03. The description is as above.
In assay [1] the target is HLA-A*02:03. Put plainly: IEDB peptide-MHC binding, purified MHC/competitive/fluorescence; filed as Kd, often an IC50 or EC50 that approximates it; ≥ and ≤ were set here for values at or beyond the usual limits of such assays. Conditions: source organism: Human immunodeficiency virus 1.
The next assay deals with HLA-A*30:01. Described as above. To be noted: source organism: Human immunodeficiency virus 1.
For the next assay, the target named is HLA-A*02:16. Put plainly: IEDB peptide-MHC binding, purified MHC/direct/fluorescence; filed as Kd, often an IC50 or EC50 that approximates it; ≥ and ≤ were set here for values at or beyond the usual limits of such assays.
The next assay deals with HLA-A*03:01. The assay is described as above.
For the next assay, the target named is HLA-B*15:17. The description is as above.
For a further assay, the target named is HLA-B*18:01. Described as above.
The target in a further assay is HLA-B*27:03. Described as above.
A further assay concerns the target HLA-B*39:01. The assay is described as above. To be noted: source organism: Entamoeba histolytica HM-1:IMSS.
The target in another assay is HLA-B*57:01. The assay is described as above.
In assay [2] the target is HLA-A*02:03. The assay is described as above.
The next assay has as its target HLA-B*15:42. Briefly: IEDB peptide-MHC binding, purified MHC/competitive/fluorescence; filed as Kd, often an IC50 or EC50 that approximates it; ≥ and ≤ were set here for values at or beyond the usual limits of such assays. Conditions: source organism: Mycobacterium tuberculosis variant bovis BCG str. Pasteur 1173P2.
In a further assay the target is HLA-B*45:06. Described as above. Conditions: source organism: Mycobacterium tuberculosis variant bovis BCG str. Pasteur 1173P2.
The target in the next assay is HLA-B*83:01. Described as above. Conditions: source organism: Mycobacterium tuberculosis variant bovis BCG str. Pasteur 1173P2.
The next assay concerns the target HLA-A*24:03. Put plainly: IEDB peptide-MHC binding, purified MHC/direct/fluorescence; filed as Kd, often an IC50 or EC50 that approximates it; ≥ and ≤ were set here for values at or beyond the usual limits of such assays.
Another assay has as its target HLA-A*26:01. The assay is described as above.
In the next assay the target is HLA-A*29:02. The description is as above.
A further assay addresses HLA-A*68:02. The description is as above.
The target of a further assay is HLA-B*15:01. The assay is described as above.
The target in a further assay is HLA-B*46:01. Described as above.
The target in a further assay is HLA-B*51:01. The assay is described as above.
A further assay has as its target HLA-B*48:01. Briefly: IEDB peptide-MHC binding, purified MHC/competitive/fluorescence; filed as Kd, often an IC50 or EC50 that approximates it; ≥ and ≤ were set here for values at or beyond the usual limits of such assays.
The target in a further assay is HLA-A*23:01. Put plainly: IEDB peptide-MHC binding, purified MHC/direct/fluorescence; filed as Kd, often an IC50 or EC50 that approximates it; ≥ and ≤ were set here for values at or beyond the usual limits of such assays. Conditions: source organism: Influenza A virus (A/Memphis/1/1986(H3N2)).
[3] abbreviates: source organism: Francisella tularensis subsp. holarctica LVS.
Setting [4] is: source organism: Francisella tularensis subsp. tularensis FSC033.
The mark [5] stands for this setting: source organism: Entamoeba histolytica HM-1:IMSS.
Where [6] appears, read: source organism: Listeria monocytogenes serotype 4b str. H7858.
[7] abbreviates: source organism: Influenza A virus (A/Memphis/1/1986(H3N2)).

Consider FLYDISISL, for which the dissociation constant Kd (usually a measure of binding affinity in units of concentration) in the assay with HLA-A*02:01 (setting [3]) is 0.0011 µM; with HLA-A*02:11 (setting [4]) it was no more than 0.001 µM; with HLA-A*02:12 (setting [4]) it was 0.003 µM; with HLA-A*02:19 (setting [4]), 0.007 µM; with HLA-A*69:01 (setting [3]) it was 0.0157 µM; in the assay with HLA-C*03:03 (source organism: Francisella tularensis subsp. tularensis FSC198), no more than 0.001 µM.

With RSLYNTIAVLY, the Kd was 0.679 µM with HLA-A*02:03 [1] and 1.91 µM with HLA-A*30:01.

With FIILSTGKY, the Kd in the assay with HLA-A*02:01 (setting [5]), in the assay with HLA-A*02:11 (setting [5]), in the assay with HLA-A*02:12 (setting [5]), with HLA-A*02:16 (setting [5]), with HLA-A*02:19 (setting [5]) and with HLA-A*03:01 (setting [5]) was no less than 20 µM throughout. Besides, the equilibrium dissociation constant (Kd) in the assay with HLA-B*15:17 (setting [5]) is 0.072 µM; with HLA-B*18:01 (setting [5]) it was no less than 20 µM; with HLA-B*27:03 (setting [5]), no less than 20 µM; with HLA-B*39:01, no less than 20 µM; with HLA-B*57:01 (setting [5]), no less than 20 µM.

Regarding AIYDTMQYV, the dissociation constant (Kd) with HLA-A*02:03 [2] (source organism: Mycobacterium tuberculosis str. Haarlem) is 0.003 µM; with HLA-A*69:01 (source organism: Mycobacterium tuberculosis) it was 0.006 µM; with HLA-B*15:42 it was no less than 5 µM; with HLA-B*45:06, no less than 5 µM; with HLA-B*83:01 it was no less than 5 µM.

Consider ERYPGGVSL, for which the dissociation constant (Kd) with HLA-A*02:01 (setting [6]), in the assay with HLA-A*02:03 [2] (setting [6]), in the assay with HLA-A*02:11 (setting [6]), with HLA-A*02:12 (setting [6]), with HLA-A*02:16 (setting [6]) and with HLA-A*02:19 (setting [6]) was no less than 20 µM throughout. Besides, the dissociation constant (Kd) with HLA-A*03:01 (setting [6]), with HLA-A*24:03 (setting [6]), with HLA-A*26:01 (setting [6]), with HLA-A*29:02 (setting [6]), with HLA-A*68:02 (setting [6]) and with HLA-A*69:01 (setting [6]) was no less than 20 µM throughout. Also, the dissociation constant (Kd) with HLA-B*15:01 (setting [6]), with HLA-B*15:17 (setting [6]), with HLA-B*18:01 (setting [6]), with HLA-B*27:03 (setting [6]), in the assay with HLA-B*46:01 (setting [6]) and with HLA-B*51:01 (setting [6]) was no less than 20 µM each time. For the same sequence, in the assay with HLA-B*57:01 (setting [6]), the Kd is no less than 20 µM.

Take FQLYPPQIL: the dissociation constant (Kd) with HLA-C*03:03 (setting [5]) stood at 0.033 µM; with HLA-B*48:01 (setting [5]), 0.077 µM.

As for LQAMHGFPL, in the assay with HLA-B*48:01 (source organism: Escherichia coli O157:H7 str. EDL933), the dissociation constant Kd stood at 0.0968 µM.

Take FPDGKPFTL: the dissociation constant Kd in the assay with HLA-A*02:01 (setting [6]), in the assay with HLA-A*02:03 [2] (setting [6]), with HLA-A*02:11 (setting [6]), in the assay with HLA-A*02:12 (setting [6]), in the assay with HLA-A*02:16 (setting [6]) and with HLA-A*02:19 (setting [6]) was no less than 20 µM throughout. Besides, the Kd with HLA-A*03:01 (setting [6]), with HLA-A*26:01 (setting [6]), with HLA-A*29:02 (setting [6]), in the assay with HLA-B*15:01 (setting [6]), with HLA-B*15:17 (setting [6]) and in the assay with HLA-B*18:01 (setting [6]) was no less than 20 µM throughout. Besides, the Kd with HLA-B*27:03 (setting [6]), with HLA-B*46:01 (setting [6]), with HLA-B*51:01 (setting [6]) and with HLA-B*57:01 (setting [6]) was no less than 20 µM each time.

Regarding NHDGIQAGV, the dissociation constant Kd with HLA-A*02:01 (setting [7]), in the assay with HLA-A*02:03 [2] (setting [7]), with HLA-A*02:11 (setting [7]), in the assay with HLA-A*02:12 (setting [7]), with HLA-A*02:16 (setting [7]) and with HLA-A*02:19 (setting [7]) was no less than 20 µM each time. In addition, the equilibrium dissociation constant (Kd) with HLA-A*03:01 (setting [7]), with HLA-A*23:01, with HLA-A*24:03 (setting [7]), with HLA-A*26:01 (setting [7]), with HLA-A*29:02 (setting [7]) and in the assay with HLA-A*68:02 (setting [7]) was no less than 20 µM in each case. The Kd with HLA-A*69:01 (setting [7]), with HLA-B*15:01 (setting [7]), in the assay with HLA-B*15:17 (setting [7]), with HLA-B*18:01 (setting [7]), with HLA-B*27:03 (setting [7]) and with HLA-B*46:01 (setting [7]) was no less than 20 µM throughout. Besides, the Kd with HLA-B*51:01 (setting [7]) and with HLA-B*57:01 (setting [7]) was no less than 20 µM in each case.
